EP4714971A1 (Shanghai Hansoh Biomedical Co., Ltd., dated 2024)
Like-named read-outs stand apart in the source and are kept apart here.

Legend:
[1] = target: T1, human SEZ6 expressed on stably transfected CHO-K1 cells (human, UniProt Q53EL9 20-994); assay: flow cytometry on CHO-K1 cells expressing human SEZ6
T1 construct: also called CHO-SEZ6; hSEZ6
T1 sequence: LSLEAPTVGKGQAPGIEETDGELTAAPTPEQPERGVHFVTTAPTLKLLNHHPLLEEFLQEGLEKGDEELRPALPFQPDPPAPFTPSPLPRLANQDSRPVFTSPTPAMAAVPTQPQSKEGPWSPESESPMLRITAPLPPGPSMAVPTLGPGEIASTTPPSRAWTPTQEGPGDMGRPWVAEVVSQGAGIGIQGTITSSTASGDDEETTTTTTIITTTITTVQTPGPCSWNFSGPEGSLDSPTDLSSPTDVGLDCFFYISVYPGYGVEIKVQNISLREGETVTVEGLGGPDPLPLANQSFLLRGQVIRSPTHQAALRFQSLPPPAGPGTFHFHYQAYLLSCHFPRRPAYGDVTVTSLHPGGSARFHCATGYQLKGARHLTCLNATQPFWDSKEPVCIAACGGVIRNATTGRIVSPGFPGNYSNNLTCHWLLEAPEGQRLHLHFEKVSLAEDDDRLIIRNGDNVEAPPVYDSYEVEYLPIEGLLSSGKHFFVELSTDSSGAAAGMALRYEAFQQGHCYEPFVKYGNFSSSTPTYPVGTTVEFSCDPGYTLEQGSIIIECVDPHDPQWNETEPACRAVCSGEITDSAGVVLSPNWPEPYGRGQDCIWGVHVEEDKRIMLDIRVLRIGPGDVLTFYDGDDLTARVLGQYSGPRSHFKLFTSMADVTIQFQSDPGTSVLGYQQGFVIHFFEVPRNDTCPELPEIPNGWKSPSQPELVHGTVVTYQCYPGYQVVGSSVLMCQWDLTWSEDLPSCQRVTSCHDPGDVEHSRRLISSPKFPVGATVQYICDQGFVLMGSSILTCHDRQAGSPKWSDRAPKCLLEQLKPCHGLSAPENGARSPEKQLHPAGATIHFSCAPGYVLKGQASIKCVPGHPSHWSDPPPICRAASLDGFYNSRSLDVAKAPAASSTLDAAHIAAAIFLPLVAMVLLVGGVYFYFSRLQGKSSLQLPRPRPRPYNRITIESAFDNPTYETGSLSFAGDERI

[2] = target: T1, human SEZ6 expressed on stably …; assay: as above; remark: listed apart in the source
[3] = target: T1, human SEZ6 expressed on stably …; assay: as above; remark: listed apart in the source
[4] = target: T2, cynomolgus monkey SEZ6 expressed on stably transfected CHO-K1 cells (cynomolgus monkey, UniProt Q53EL9 20-994 (human entry)); assay: flow cytometry on CHO-K1 cells expressing cynomolgus monkey SEZ6
T2 construct: also called CHO-cynoSEZ6; monkey SEZ6 on the cell membrane
T2 chain: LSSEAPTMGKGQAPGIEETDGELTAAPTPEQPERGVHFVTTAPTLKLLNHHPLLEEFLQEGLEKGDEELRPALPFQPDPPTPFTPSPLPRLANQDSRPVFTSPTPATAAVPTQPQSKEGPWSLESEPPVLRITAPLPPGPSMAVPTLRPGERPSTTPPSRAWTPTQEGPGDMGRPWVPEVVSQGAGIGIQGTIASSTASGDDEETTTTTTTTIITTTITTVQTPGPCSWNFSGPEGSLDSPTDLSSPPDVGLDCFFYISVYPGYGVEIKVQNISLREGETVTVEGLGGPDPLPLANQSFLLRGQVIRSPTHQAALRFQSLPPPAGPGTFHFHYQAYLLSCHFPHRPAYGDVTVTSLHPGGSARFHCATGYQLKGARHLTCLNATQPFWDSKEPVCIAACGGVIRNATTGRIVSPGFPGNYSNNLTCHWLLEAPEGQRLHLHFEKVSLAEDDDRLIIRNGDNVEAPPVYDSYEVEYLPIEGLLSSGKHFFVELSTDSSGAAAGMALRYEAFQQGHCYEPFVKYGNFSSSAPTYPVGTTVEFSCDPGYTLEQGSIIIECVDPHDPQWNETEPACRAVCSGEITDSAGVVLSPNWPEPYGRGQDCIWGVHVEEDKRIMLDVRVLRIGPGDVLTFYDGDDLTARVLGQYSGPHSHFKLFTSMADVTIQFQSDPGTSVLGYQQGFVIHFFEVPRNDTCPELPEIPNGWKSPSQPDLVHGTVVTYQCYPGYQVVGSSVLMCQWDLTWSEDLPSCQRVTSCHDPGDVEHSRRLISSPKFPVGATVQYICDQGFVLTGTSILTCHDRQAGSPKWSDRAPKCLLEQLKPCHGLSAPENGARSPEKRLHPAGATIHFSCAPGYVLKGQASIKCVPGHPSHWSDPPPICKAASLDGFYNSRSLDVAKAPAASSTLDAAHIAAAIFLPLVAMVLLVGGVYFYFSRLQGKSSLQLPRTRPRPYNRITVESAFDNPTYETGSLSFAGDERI

- EC50 [1]: 0.19 nM
- EC50 [2]: 0.66 nM
- MFImax [2]: 3300
- EC50 [3]: 0.21 nM
- MFImax [3]: 3940
- EC50 [4]: 0.26 nM
B1: hSC200 (hSC17.200) (antibody, human IgG1, kappa, V domains shown)
VH: EVQLVQSGAEVKKPGESLKISCKGSGYSFTSSWINWVRQMPGKGLEWMGRIYPGEGDTNYNGNFEGQVTISADKSISTAYLQWSSLKASDTAMYYCTRGLVMDYWGQGTLVTVSS
VL: EIVLTQSPATLSLSPGERATLSCRASQSVDYNGISYMHWYQQKPGQAPRLLIYAASNVQSGIPARFSGSGSGTDFTLTISSLEPEDFAVYYCQQSIEDPPTFGGGTKVEIKR
notes: also called control molecule; control antibody
